± gives the standard error. For some of these results: This sample holds only a part of the variants without activity.
B1: glmS ribozyme (parent)
chain: AUAAAAGCGCCAGAACUACAGAAAUGUAGUUGACGAGGAGGAGGUUUAUCGAAUUUUCGGCGGAUGCCUCCAAA

Assays:
Conditions in all cases: with glucosamine-6-phosphate
glucosamine-6-phosphate [1] = variants of: B1; assay: kcat; higher = faster cleavage; RNA array
How it was run: (§1)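 E. coli RNA polymerase transcribed barcoded ribozyme variants in situ on sequenced MiSeq chips, which were tracked via a hybridised Cy3 probe at 37 °C. Tiles were imaged over ~14 h after glucosamine-6-phosphate (40 μM to 10 mM) in HEPES/KCl/Mg(OAc)2 buffer was flowed in. Normalised per-tile medians were fit to one- or two-exponential decays for kobs, and kcat and KM came from weighted Michaelis–Menten fits.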

glucosamine-6-phosphate [2] = variants of: B1; assay: KM; higher = weaker cofactor use; RNA array
How it was run: as §1

glucosamine-6-phosphate [3] = variants of: B1; assay: self-cleavage kobs at 40 uM GlcN6P; higher = faster cleavage; RNA array
How it was run: as §1

glucosamine-6-phosphate [4] = variants of: B1; assay: self-cleavage kobs at 160 uM GlcN6P; higher = faster cleavage; RNA array
How it was run: as §1

glucosamine-6-phosphate [5] = variants of: B1; assay: self-cleavage kobs at 640 uM GlcN6P; higher = faster cleavage; RNA array
How it was run: as §1

glucosamine-6-phosphate [6] = variants of: B1; assay: self-cleavage kobs at 2500 uM GlcN6P; higher = faster cleavage; RNA array
How it was run: as §1

glucosamine-6-phosphate [7] = variants of: B1; assay: self-cleavage kobs at 10000 uM GlcN6P; higher = faster cleavage; RNA array
How it was run: as §1

| Variant | kcat (glucosamine-6-phosphate [1]) [s⁻¹] | KM (glucosamine-6-phosphate [2]) [µM] | self-cleavage kobs at 40 uM GlcN6P (glucosamine-6-phosphate [3]) [s⁻¹] | self-cleavage kobs at 160 uM GlcN6P (glucosamine-6-phosphate [4]) [s⁻¹] | self-cleavage kobs at 640 uM GlcN6P (glucosamine-6-phosphate [5]) [s⁻¹] | self-cleavage kobs at 2500 uM GlcN6P (glucosamine-6-phosphate [6]) [s⁻¹] | self-cleavage kobs at 10000 uM GlcN6P (glucosamine-6-phosphate [7]) [s⁻¹] |
| --- | --- | --- | --- | --- | --- | --- | --- |
| U65G C67G | 0.00141 ± 6.7e-05 | 1630 ± 120 | 3.46e-05 ± 6.7e-06 | 0.00012 ± 1.6e-05 | 0.000419 ± 4.6e-05 | 0.00082 ± 0.00011 | 0.00122 ± 0.00014 |
| U65G C67U | 0.00306 ± 0.00057 | 3590 ± 950 | 3.92e-05 ± 7.9e-06 | 0.000142 ± 1.8e-05 | 0.000459 ± 5.7e-05 | 0.00101 ± 0.00014 | 0.00248 ± 0.00025 |
| U56A C71G | 0.00102 ± 0.00013 | 1010 ± 210 | 5.19e-05 ± 8e-06 | 0.000119 ± 1.8e-05 | 0.000396 ± 4.5e-05 | 0.000715 ± 9.6e-05 | 0.000952 ± 0.0001 |
| U65A C70A | 7.41e-05 ± 5e-06 | 128 ± 49 |  | 4.4e-05 ± 1.4e-05 | 5.79e-05 ± 1.2e-05 | 6.44e-05 ± 1.3e-05 | 8.15e-05 ± 1.3e-05 |
| G66C C70U | 0.00129 ± 0.00032 | 1440 ± 670 | 4.77e-05 ± 9.1e-06 | 0.000178 ± 3.5e-05 | 0.000285 ± 4.7e-05 | 0.00109 ± 0.00013 | 0.0011 ± 0.00011 |
| C58A G60C C67G | 1.21e-05 ± 3.8e-06 |  |  |  |  |  |  |
| U57A C68U | 0.00017 ± 1.9e-05 | 2500 ± 560 |  |  | 3.78e-05 ± 8.1e-06 | 7.94e-05 ± 1e-05 | 0.000143 ± 2.2e-05 |
| C58A U65A | 1.58e-05 ± 1.9e-06 |  |  |  |  |  |  |
| C58A U65C | 6.66e-05 ± 7.6e-06 | 5030 ± 1300 |  |  |  |  | 4.42e-05 ± 2.2e-05 |
| U65A C68A | 8.88e-05 ± 1.5e-05 |  |  | 5.78e-05 ± 1.6e-05 | 8.74e-05 ± 1.1e-05 | 0.00015 ± 2.2e-05 | 7.53e-05 ± 8.6e-06 |
| U55C C71A | 0.000398 ± 3.4e-05 | 3820 ± 600 |  |  | 5.32e-05 ± 6.9e-06 | 0.000174 ± 1.9e-05 | 0.000283 ± 2.2e-05 |
| U57C U69G | 2.77e-05 ± 6.2e-06 |  |  | 3.31e-05 ± 1.4e-05 | 3.38e-05 ± 1.3e-05 |  |  |
| G66A C67A | 0.00809 ± 0.0018 | 1620 ± 470 | 0.000216 ± 3.4e-05 | 0.000708 ± 0.00012 | 0.00222 ± 0.0004 | 0.00373 ± 0.00093 | 0.00873 ± 0.0016 |
| A64G C71U | 0.00692 ± 0.0014 | 2040 ± 540 | 0.000158 ± 1.6e-05 | 0.000417 ± 4.5e-05 | 0.00177 ± 0.00015 | 0.00386 ± 0.00036 | 0.00552 ± 0.00084 |
| U57C U65G | 3.4e-05 ± 3.5e-06 |  |  |  |  | 3.03e-05 ± 1.3e-05 | 3.07e-05 ± 1.1e-05 |
| U57C U65A | 1.91e-05 ± 3.6e-07 | 1410 ± 140 | < 1e-05 |  |  |  |  |
| U56G A64C | 7.21e-05 ± 4.9e-06 | 1500 ± 420 |  | < 1e-05 | 2.44e-05 ± 1.1e-05 | 3.92e-05 ± 1.5e-05 | 6.35e-05 ± 8.6e-06 |

| Variant | kcat (glucosamine-6-phosphate [1]) [s⁻¹] | KM (glucosamine-6-phosphate [2]) [µM] | self-cleavage kobs at 40 uM GlcN6P (glucosamine-6-phosphate [3]) [s⁻¹] | self-cleavage kobs at 160 uM GlcN6P (glucosamine-6-phosphate [4]) [s⁻¹] | self-cleavage kobs at 640 uM GlcN6P (glucosamine-6-phosphate [5]) [s⁻¹] | self-cleavage kobs at 2500 uM GlcN6P (glucosamine-6-phosphate [6]) [s⁻¹] | self-cleavage kobs at 10000 uM GlcN6P (glucosamine-6-phosphate [7]) [s⁻¹] |
| --- | --- | --- | --- | --- | --- | --- | --- |
| C58U C70U | 0.000128 ± 1.9e-05 | 4650 ± 1400 |  |  |  | 4.75e-05 ± 5.9e-06 | 8.61e-05 ± 8.8e-06 |
| A64G U69G C71A | 2.3e-05 ± 7.7e-06 |  |  |  |  |  |  |
| G66A C71G | 0.00165 ± 0.00056 | 1470 ± 720 | 5.97e-05 ± 7.2e-06 | 0.000141 ± 1.8e-05 | 0.000486 ± 6.2e-05 | 0.000935 ± 9.9e-05 | 0.00264 ± 0.00044 |
| C58U A64C C70A | 1.83e-05 ± 1.5e-06 | 363 ± 120 | < 1e-05 |  |  |  |  |
| U65C C68U | 2.26e-05 ± 1.2e-06 | 558 ± 230 |  |  |  |  |  |
| U57C C67G | 2.59e-05 ± 3.7e-06 |  | < 1e-05 |  |  | 3.12e-05 ± 1.1e-05 | 2.21e-05 ± 8.5e-06 |
| U57A G66U | 2.06e-05 ± 1.5e-06 |  | < 1e-05 |  |  |  |  |
| U55G A64C | 0.000152 ± 1.4e-05 | 1210 ± 350 |  |  | 5.93e-05 ± 1.7e-05 | 9.39e-05 ± 1.5e-05 | 0.000143 ± 2e-05 |
| U55G C67A | 0.000773 ± 0.00021 |  | 0.000267 ± 4.8e-05 | 0.000394 ± 8.8e-05 | 0.000772 ± 0.00013 |  |  |
| U55C U56C | 9.63e-05 ± 1.9e-05 |  |  |  | 4.92e-05 ± 2e-05 | 5.28e-05 ± 1e-05 | 8.84e-05 ± 1.5e-05 |
| G63U C68G | 1.09e-05 ± 2.8e-06 |  | < 1e-05 |  |  | < 1e-05 |  |
| U55C A64C | 1.63e-05 ± 1.9e-06 |  |  | < 1e-05 |  |  |  |
| C58G C61A | 1.85e-05 ± 4e-06 |  |  |  |  |  |  |
| C58U C61U | < 1e-05 |  | < 1e-05 |  | < 1e-05 |  |  |
| U65A G66A | 0.00068 ± 8.6e-05 | 1640 ± 390 | 3.95e-05 ± 1.7e-05 | 6.05e-05 ± 1.3e-05 | 0.000177 ± 2.8e-05 | 0.000442 ± 6.9e-05 | 0.000577 ± 7.2e-05 |
| U57G U69C | 1.77e-05 ± 7.2e-06 |  |  |  |  |  |  |
| U56G G66A | 0.0089 ± 0.0034 |  | 0.00021 ± 3.4e-05 | 0.00049 ± 0.00011 | 0.00136 ± 0.00037 | 0.00405 ± 0.00078 | 0.00875 ± 0.0018 |

From the supplement of paper PMC7125110
